From US20260250737A1, “Engineered Luciferases and Luciferin Substrates” (Monod Bio, Inc., priority 2023, published 2026)
Where two headings read alike, the source gives them in different places. Each block holds one molecule with its values, some of them ahead of it.

Assays:
[1] = tested on: MBIO-301-derived split enzyme; assay: Bioluminescence emission of synthetic luciferin substrates with MBIO-301-derived split enzyme (FRB:FKBP, rapamycin); type: biochemical; conditions: 1 nM MBIO-557, 1 nM MBIO-563, 10 μM Substrate, 100 nM Rapamycin
Procedure: The MBIO-301 enzyme was split into two components: MBIO-557 (Small portion) and MBIO-563 (Large portion). • MBIO-557 has the following sequence: NRVDEVRVYINGSGS (SEQ ID NO:2735) • MBIO-563 has the following sequence:
Bioluminescence emission of synthetic luciferin substrates was measured. The luciferin substrates were incubated with MBIO-301-derived split enzyme. The two-component MBIO-301 split luciferase enzyme was fused to the rapamycin inducible FRB:FKBP system and incubated with its complementary part at a 1:1 ratio. Each of the molecules was incubated with 1×PBS, 0.5% Propylene Glycol, 0.05% Anti-foam, 100 mM Imidazole, 10 mM Ascorbic Acid buffer, 100 nM Rapamycin and emission signal was measured using a Synergy H1 plate reader.
In-well concentrations: 1 nM MBIO-557 (EGFP-FRB-Small portion), 1 nM MBIO-563 (EGFP-FKBP-Large portion), 10 μM Substrate, 100 nM Rapamycin.

[2] = tested on: LuxSit; type: biochemical; conditions: inclusion in assay buffer at pH8
Procedure: Assay buffers that increase and stabilize the signal output of luciferase assay were tested. Inclusion of Imidazole increased the brightness of LuxSit at pH8.
In-well concentrations were 185 pM of enzyme and 10 μM DTZ. […] In-well concentrations of DTZ was 10 μM.

[3] = Stability of LuxSit-i variants (yeast display protease resistance, static light scattering); type: physicochemical; conditions: among variants derived from MBIO-2859, Table 13
Procedure: In certain aspects, these polypeptides have improved stability at high temperatures as compared to LuxSit-i. For example, these polypeptides are stable at higher temperatures as compared to LuxSit-i. Stability may be measured by enzymatic activity and/or protein misfolding measured over a period of time. In certain embodiments, stability may be measured using static light scattering (SLS).
A single saturation mutagenesis (SSM) was performed to evaluate by yeast display the effect of single mutations in the stability of LuxSit-i (SEQ ID NO:1). The SSM library was transformed into electrocompetent cells of the strain EBY100. Twenty million cells were labeled with anti-myc FITC antibody in order to detect protein expression on the yeast surface by measuring fluorescence emission. Cells were sorted using a Sony SH800 cell sorter and those showing protein expression (FITC signal) were collected and grown. DNA was extracted from the sorted cells using conventional DNA extraction conventional methods. The DNA library was sequenced using Nanopore technology. Single amino acid substitutions that increase protein stability are enriched after sorting.
(§1) Single saturation mutagenesis (SSM) was performed to evaluate (by yeast display) the effect of single mutations in the stability of LuxSit-i-i. The SSM library was transformed into electrocompetent cells of the strain EBY100. Twenty million cells were labeled with an anti-myc FITC antibody to detect protein expression on the yeast surface by measuring the emission of fluorescence by FITC. Yeast were incubated with a mixture of 3.5 uM trypsin and 1.4 uM chymotrypsin (1/729 dilution of the stock solution) at 25° C. for 15 min. Cells were sorted using a Sony SH800 cell sorter and those showing protein expression (FITC signal) after protease incubation were collected and grown. DNA was extracted from the sorted cells using conventional DNA extraction conventional methods. The DNA library was sequenced using Nanopore technology. Single amino acid substitutions that increase protein stability are enriched after sorting.
as §1, with “LuxSit-i.” for “LuxSit-i-i.”, “antibody in order” for “antibody”, “10” for “3.5”, “4” for “1.4”, “(1/243” for “(1/729”
as §1, with “LuxSit-i.” for “LuxSit-i-i.”, “antibody in order” for “antibody”, “15” for “3.5”, “6” for “1.4”, “(1/162” for “(1/729”, “sorting. […]” for “sorting.”

[4] = Luciferase activity (brightness) of LuxSit-i variants; type: biochemical; conditions: among variants derived from MBIO-2859, Table 13
[5] = Luciferase activity of circularly permuted LuxSit-i variants; type: biochemical; conditions: circularly permuted proteins; 5 nM protein, 10 μM DTZ
Procedure: FIG. 6A provides kinetic profile over one hour of circularly permuted LuxSit-i variants. Variants were diluted in PBS and combined 1:1 with DTZ substrate, resulting in final in-well concentrations of 5 nM protein/variant and 10 μM DTZ.
Variants were diluted in PBS and combined 1:1 with DTZ substrate, resulting in final in-well concentrations of 5 nM protein and 10 μM DTZ.

[6] = molecular target: T1, LgLux_4039; assay: cell-based or functional assay
T1 chain: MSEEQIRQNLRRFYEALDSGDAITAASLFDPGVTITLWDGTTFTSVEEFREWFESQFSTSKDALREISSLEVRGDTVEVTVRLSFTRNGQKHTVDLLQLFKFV

[7] = molecular target: T2, MBIO-5339; assay: cell-based or functional assay
T2 chain: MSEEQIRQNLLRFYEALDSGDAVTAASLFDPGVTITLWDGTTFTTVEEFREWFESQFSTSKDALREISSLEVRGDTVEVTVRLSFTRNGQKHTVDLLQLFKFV

[8] = molecular target: T3, MBIO-5342; assay: cell-based or functional assay
T3 chain: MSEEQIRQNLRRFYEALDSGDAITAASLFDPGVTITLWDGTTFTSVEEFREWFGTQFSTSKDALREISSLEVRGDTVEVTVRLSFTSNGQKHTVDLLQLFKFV

[9] = molecular target: T4, MBIO-5341; assay: cell-based or functional assay
T4 chain: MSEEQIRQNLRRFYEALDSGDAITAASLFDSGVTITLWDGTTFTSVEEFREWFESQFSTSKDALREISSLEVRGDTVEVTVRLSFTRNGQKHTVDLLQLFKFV

[10] = molecular target: T5, MBIO-5340; assay: cell-based or functional assay
T5 chain: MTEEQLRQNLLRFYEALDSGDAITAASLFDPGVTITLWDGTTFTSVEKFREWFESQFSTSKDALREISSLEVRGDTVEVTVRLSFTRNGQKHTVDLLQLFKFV

[11] = molecular target: T6, LgLux_4039 variant S19C (SEQ ID NO:2805); assay: cell-based or functional assay
T6 chain: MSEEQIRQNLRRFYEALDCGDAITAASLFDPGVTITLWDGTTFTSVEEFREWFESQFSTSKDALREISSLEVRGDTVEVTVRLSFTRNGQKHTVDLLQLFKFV

[12] = molecular target: T1, LgLux_4039; assay: cell-based or functional assay
[13] = molecular target: T7, MBIO-5335; assay: cell-based or functional assay
T7 chain: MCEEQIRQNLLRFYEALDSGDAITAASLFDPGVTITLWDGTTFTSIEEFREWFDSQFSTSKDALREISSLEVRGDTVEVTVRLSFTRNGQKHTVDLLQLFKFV

[14] = molecular target: T8, MBIO-5336; assay: cell-based or functional assay
T8 chain: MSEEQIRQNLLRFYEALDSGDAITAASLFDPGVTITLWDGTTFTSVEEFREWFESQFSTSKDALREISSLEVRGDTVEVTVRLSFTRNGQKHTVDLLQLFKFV

[15] = molecular target: T9, MBIO-5337; assay: cell-based or functional assay
T9 chain: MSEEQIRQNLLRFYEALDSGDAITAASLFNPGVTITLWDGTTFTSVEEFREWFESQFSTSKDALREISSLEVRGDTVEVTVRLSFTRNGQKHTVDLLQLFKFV

[16] = molecular target: T10, MBIO-5338; assay: cell-based or functional assay
T10 chain: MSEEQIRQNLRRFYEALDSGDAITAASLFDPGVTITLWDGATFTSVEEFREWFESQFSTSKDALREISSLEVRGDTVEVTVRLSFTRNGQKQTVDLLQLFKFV

- luciferase activity compared to SEQ ID NO:2600 [5]: similar
B2: SEQ ID NO 2236: circularly permuted protein from MBIO-148, inpaint length 32 (protein)
chain: GQKHVVVLVHTFRFRGNRVTEVRVEIIPAPSLDEESIEARVAEARRLAEERLAELGDPPPSISEEQIRQFLRRFYEALDSGDADTAASLFHPGVTIHLWDGVTFTSREEFREWFERLFSTSKDAWREIVELRVRGDTVVVVVVLHFTLN

- luciferase activity compared to SEQ ID NO:2600 [5]: similar
B3: SEQ ID NO 2227: circularly permuted protein from MBIO-148, inpaint length 32 (protein)
chain: GQKHVVVLVHTFRFRGNRVTEVEVEIIPCPSLDEASIAAAIAEAEALAAERLAELGAPPPSISEEQIRQFLRRFYEALDSGDADTAASLFHPGVTIHLWDGVTFTSREEFREWFERLFSTSKDAWREIVSLRVVGDTVVVVVVLHFTLN

- Baseline Signal (Normalized by expression) [6]: 123000
- Fold change upon Rap addition [6]: 1.5 fold
- Baseline Signal (Normalized by expression) [7]: 28300
- Fold change upon Rap addition [7]: 1.9 fold
- Baseline Signal (Normalized by expression) [8]: 3360
- Fold change upon Rap addition [8]: 2 fold
- Baseline Signal (Normalized by expression) [9]: 10400
- Fold change upon Rap addition [9]: 2.2 fold
- Baseline Signal (Normalized by expression) [10]: 6670
- Fold change upon Rap addition [10]: 2.2 fold
- Baseline Signal (Normalized by expression) [11]: 3670
- Fold change upon Rap addition [11]: 2 fold
- Baseline Signal (Normalized by expression) [12]: 22100
- Fold change upon Rap addition [12]: 1.9 fold
- Baseline Signal (Normalized by expression) [13]: 23800
- Fold change upon Rap addition [13]: 1.9 fold
- Baseline Signal (Normalized by expression) [14]: 16400
- Fold change upon Rap addition [14]: 2.1 fold
- Baseline Signal (Normalized by expression) [15]: 14900
- Fold change upon Rap addition [15]: 2.1 fold
- Baseline Signal (Normalized by expression) [16]: 18900
- Fold change upon Rap addition [16]: 2.2 fold
Molecule: RVVAVRVYVNPTG [SmLux_4039]

Second part, the molecule before the results:

Molecule: O=c1c(Cc2ccccc2)nc2c(-c3ccccc3)[nH]c(-c3ccc(O)cc3)cn1-2 [1c]
- Fold Change with Rapamycin Addition at Initial Read [1]: 116.8

Molecule: O=c1c(Cc2ccccc2)nc2c(-c3ccc(F)cc3)[nH]c(-c3ccccc3)cn1-2 [2d]
- Fold Change with Rapamycin Addition at Initial Read [1]: 46.2

Molecule: O=c1c(Cc2ccccc2)nc2c(-c3cccnc3)[nH]c(-c3ccccc3)cn1-2 [2p]
- Fold Change with Rapamycin Addition at Initial Read [1]: 17.1

Molecule: O=c1c(Cc2ccccc2)nc2c(-c3ccccc3)[nH]c(-c3ccccc3)cn1-2 [DTZ, Diphenylterazine, reference compound]
- Fold Change with Rapamycin Addition at Initial Read [1]: 58.4

Molecule: c1c[nH]cn1 [Imidazole]
- brightness of LuxSit [2]: increased

B1: MBIO-4039: MBIO-2859 variant (Table 13), SEQ ID NO: 2730 (protein)
chain: MSEEQIRQNLRRFYEALDSGDAITAASLFDPGVTITLWDGTTFTSVEEFREWFESQFSTSKDALREISSLEVRGDTVEVTVRLSFTRNGQKHTVDLLQLFKFVGNRVVAVRVYVNPTG
- stability [3]: most stable
- luciferase activity [4]: highest
